# Assays:
# HpRap1B [1] = biological target: T1, HpRap1B (Hansenula polymorpha DL-1, UniProt W1QDN2 1-576); assay: SPR; kinetic fit; SPR: 10 mM HEPES-NaOH pH 7.5, 150 mM NaCl, 0.5 mM DTT, 0.05% Tween 20, 1 mg/ml BSA, 0.02 mg/ml salmon sperm DNA; competition 2 nM protein with 20 or 200 nM competitor. EMSA: 20 mM HEPES-NaOH pH 7.5, 50 mM NaCl, 0.2 mg/ml BSA, 5% glycerol, 0.1 mg/ml salmon sperm DNA, room temperature; conditions: protein: recombinant; 3' overhang 20 nt on strand 2
# T1 sequence: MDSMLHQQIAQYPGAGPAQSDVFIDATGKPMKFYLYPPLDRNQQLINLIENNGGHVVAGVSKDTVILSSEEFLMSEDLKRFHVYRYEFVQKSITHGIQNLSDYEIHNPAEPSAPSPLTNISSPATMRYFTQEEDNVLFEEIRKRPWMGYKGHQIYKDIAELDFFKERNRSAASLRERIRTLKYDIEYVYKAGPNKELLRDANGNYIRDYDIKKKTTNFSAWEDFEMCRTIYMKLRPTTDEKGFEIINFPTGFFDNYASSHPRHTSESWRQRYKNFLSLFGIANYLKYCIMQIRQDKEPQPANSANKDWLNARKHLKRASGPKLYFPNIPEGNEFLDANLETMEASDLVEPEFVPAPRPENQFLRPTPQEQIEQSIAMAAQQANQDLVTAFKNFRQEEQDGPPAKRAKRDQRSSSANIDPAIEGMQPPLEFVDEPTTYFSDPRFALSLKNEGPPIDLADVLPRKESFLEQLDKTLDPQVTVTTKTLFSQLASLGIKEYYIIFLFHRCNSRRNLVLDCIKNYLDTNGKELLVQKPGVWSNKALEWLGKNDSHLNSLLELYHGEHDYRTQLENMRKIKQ
# HpRap1A [2] = biological target: T2, HpRap1A (Hansenula polymorpha DL-1, UniProt W1Q7Z6 1-613); assay: SPR; SPR: 10 mM HEPES-NaOH pH 7.5, 150 mM NaCl, 0.5 mM DTT, 0.05% Tween 20, 1 mg/ml BSA, 0.02 mg/ml salmon sperm DNA; competition 2 nM protein with 20 or 200 nM competitor. EMSA: 20 mM HEPES-NaOH pH 7.5, 50 mM NaCl, 0.2 mg/ml BSA, 5% glycerol, 0.1 mg/ml salmon sperm DNA, room temperature; conditions: protein: recombinant; 3' overhang 20 nt on strand 2
# T2 sequence: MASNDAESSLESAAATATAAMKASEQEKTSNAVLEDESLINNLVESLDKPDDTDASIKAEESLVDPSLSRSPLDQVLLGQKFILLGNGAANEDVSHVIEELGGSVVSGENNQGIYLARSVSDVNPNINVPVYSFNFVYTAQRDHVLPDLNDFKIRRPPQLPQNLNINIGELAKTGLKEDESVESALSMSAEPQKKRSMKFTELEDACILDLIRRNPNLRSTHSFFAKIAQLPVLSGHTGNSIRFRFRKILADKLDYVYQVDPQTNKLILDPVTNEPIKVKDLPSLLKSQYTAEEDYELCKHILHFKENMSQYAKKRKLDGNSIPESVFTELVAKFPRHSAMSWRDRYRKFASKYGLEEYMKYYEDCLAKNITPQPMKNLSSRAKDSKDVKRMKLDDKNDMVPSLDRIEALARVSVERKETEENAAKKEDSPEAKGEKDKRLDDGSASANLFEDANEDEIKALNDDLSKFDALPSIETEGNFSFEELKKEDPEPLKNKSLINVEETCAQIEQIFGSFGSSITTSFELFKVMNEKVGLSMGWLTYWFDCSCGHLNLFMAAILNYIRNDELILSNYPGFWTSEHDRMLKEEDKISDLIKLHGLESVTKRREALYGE
# HpRap1A [3] = biological target: T2, HpRap1A; assay: SPR; kinetic fit; equilibrium Kd 38±15; SPR: 10 mM HEPES-NaOH pH 7.5, 150 mM NaCl, 0.5 mM DTT, 0.05% Tween 20, 1 mg/ml BSA, 0.02 mg/ml salmon sperm DNA; competition 2 nM protein with 20 or 200 nM competitor. EMSA: 20 mM HEPES-NaOH pH 7.5, 50 mM NaCl, 0.2 mg/ml BSA, 5% glycerol, 0.1 mg/ml salmon sperm DNA, room temperature; conditions: protein: recombinant; 3' overhang 20 nt on strand 2
# HpRap1A [4] = biological target: T2, HpRap1A; assay: competition SPR; score - vs VIIrAbs surface; SPR: 10 mM HEPES-NaOH pH 7.5, 150 mM NaCl, 0.5 mM DTT, 0.05% Tween 20, 1 mg/ml BSA, 0.02 mg/ml salmon sperm DNA; competition 2 nM protein with 20 or 200 nM competitor. EMSA: 20 mM HEPES-NaOH pH 7.5, 50 mM NaCl, 0.2 mg/ml BSA, 5% glycerol, 0.1 mg/ml salmon sperm DNA, room temperature; conditions: protein: recombinant; blunt
# HpRap1B [5] = biological target: T1, HpRap1B; assay: competition SPR; score ++ vs PICKU surface; SPR: 10 mM HEPES-NaOH pH 7.5, 150 mM NaCl, 0.5 mM DTT, 0.05% Tween 20, 1 mg/ml BSA, 0.02 mg/ml salmon sperm DNA; competition 2 nM protein with 20 or 200 nM competitor. EMSA: 20 mM HEPES-NaOH pH 7.5, 50 mM NaCl, 0.2 mg/ml BSA, 5% glycerol, 0.1 mg/ml salmon sperm DNA, room temperature; conditions: protein: recombinant; blunt
# HpRap1B [6] = biological target: T1, HpRap1B; assay: SPR; kinetic fit; equilibrium Kd 1.7±0.2; SPR: 10 mM HEPES-NaOH pH 7.5, 150 mM NaCl, 0.5 mM DTT, 0.05% Tween 20, 1 mg/ml BSA, 0.02 mg/ml salmon sperm DNA; competition 2 nM protein with 20 or 200 nM competitor. EMSA: 20 mM HEPES-NaOH pH 7.5, 50 mM NaCl, 0.2 mg/ml BSA, 5% glycerol, 0.1 mg/ml salmon sperm DNA, room temperature; conditions: protein: recombinant; 3' overhang 20 nt on strand 2
# HpRap1B [7] = biological target: T1, HpRap1B; assay: SPR; kinetic fit; equilibrium Kd 65±2; SPR: 10 mM HEPES-NaOH pH 7.5, 150 mM NaCl, 0.5 mM DTT, 0.05% Tween 20, 1 mg/ml BSA, 0.02 mg/ml salmon sperm DNA; competition 2 nM protein with 20 or 200 nM competitor. EMSA: 20 mM HEPES-NaOH pH 7.5, 50 mM NaCl, 0.2 mg/ml BSA, 5% glycerol, 0.1 mg/ml salmon sperm DNA, room temperature; conditions: protein: recombinant; 3' overhang 20 nt on strand 2
# HpRap1A [8] = biological target: T2, HpRap1A; assay: SPR; kinetic fit; SPR: 10 mM HEPES-NaOH pH 7.5, 150 mM NaCl, 0.5 mM DTT, 0.05% Tween 20, 1 mg/ml BSA, 0.02 mg/ml salmon sperm DNA; competition 2 nM protein with 20 or 200 nM competitor. EMSA: 20 mM HEPES-NaOH pH 7.5, 50 mM NaCl, 0.2 mg/ml BSA, 5% glycerol, 0.1 mg/ml salmon sperm DNA, room temperature; conditions: protein: recombinant; 3' overhang 20 nt on strand 2
# HpRap1B [9] = biological target: T1, HpRap1B; assay: SPR; kinetic fit; equilibrium Kd 1.9±0.1; SPR: 10 mM HEPES-NaOH pH 7.5, 150 mM NaCl, 0.5 mM DTT, 0.05% Tween 20, 1 mg/ml BSA, 0.02 mg/ml salmon sperm DNA; competition 2 nM protein with 20 or 200 nM competitor. EMSA: 20 mM HEPES-NaOH pH 7.5, 50 mM NaCl, 0.2 mg/ml BSA, 5% glycerol, 0.1 mg/ml salmon sperm DNA, room temperature; conditions: protein: recombinant; 3' overhang 20 nt on strand 2
# HpRap1A [10] = biological target: T2, HpRap1A; assay: SPR; kinetic fit; equilibrium Kd 1.8±0.5; SPR: 10 mM HEPES-NaOH pH 7.5, 150 mM NaCl, 0.5 mM DTT, 0.05% Tween 20, 1 mg/ml BSA, 0.02 mg/ml salmon sperm DNA; competition 2 nM protein with 20 or 200 nM competitor. EMSA: 20 mM HEPES-NaOH pH 7.5, 50 mM NaCl, 0.2 mg/ml BSA, 5% glycerol, 0.1 mg/ml salmon sperm DNA, room temperature; conditions: protein: recombinant; 3' overhang 20 nt on strand 2
# HpRap1B [11] = biological target: T1, HpRap1B; assay: competition SPR; score +++ vs PICKU surface; SPR: 10 mM HEPES-NaOH pH 7.5, 150 mM NaCl, 0.5 mM DTT, 0.05% Tween 20, 1 mg/ml BSA, 0.02 mg/ml salmon sperm DNA; competition 2 nM protein with 20 or 200 nM competitor. EMSA: 20 mM HEPES-NaOH pH 7.5, 50 mM NaCl, 0.2 mg/ml BSA, 5% glycerol, 0.1 mg/ml salmon sperm DNA, room temperature; conditions: protein: recombinant; blunt
# HpRap1A [12] = biological target: T2, HpRap1A; assay: SPR; kinetic fit; equilibrium Kd 12±3; SPR: 10 mM HEPES-NaOH pH 7.5, 150 mM NaCl, 0.5 mM DTT, 0.05% Tween 20, 1 mg/ml BSA, 0.02 mg/ml salmon sperm DNA; competition 2 nM protein with 20 or 200 nM competitor. EMSA: 20 mM HEPES-NaOH pH 7.5, 50 mM NaCl, 0.2 mg/ml BSA, 5% glycerol, 0.1 mg/ml salmon sperm DNA, room temperature; conditions: protein: recombinant; 3' overhang 20 nt on strand 2
# HpRap1B [13] = biological target: T1, HpRap1B; assay: SPR; SPR: 10 mM HEPES-NaOH pH 7.5, 150 mM NaCl, 0.5 mM DTT, 0.05% Tween 20, 1 mg/ml BSA, 0.02 mg/ml salmon sperm DNA; competition 2 nM protein with 20 or 200 nM competitor. EMSA: 20 mM HEPES-NaOH pH 7.5, 50 mM NaCl, 0.2 mg/ml BSA, 5% glycerol, 0.1 mg/ml salmon sperm DNA, room temperature; conditions: protein: recombinant; 3' overhang 20 nt on strand 2
binder,measurement,setting,value
PICKU (SPR) (dsDNA) DNA 1: TGAACTAGGAGCGAGGTGTGTTAC DNA 2: GTAACACACCTCGCTCCTAGTTCACCTCTACGTCCTCCTGCTCC,Kd,HpRap1B [1],0.27 ± 0.08 nM
same,binding result,HpRap1A [2],no binding
SACCE (SPR) (dsDNA) DNA 1: GTGTGTGGGTGTGTGGGTGTGTG DNA 2: CACACACCCACACACCCACACACCCTCTACGTCCTCCTGCTCC,Kd,HpRap1A [3],39 ± 15 nM
CANAR (competitor) (dsDNA) DNA 1: GGTGTTGGGTGTTGGGTGTTGGG DNA 2: CCCAACACCCAACACCCAACACC,binding result,HpRap1A [4],no binding
same,binding result,HpRap1B [5],binds
PICME (dsDNA) DNA 1: TAGAACTAGGTGTGCGGGGTATAATAG DNA 2: CTATTATACCCCGCACACCTAGTTCTA,binding result,HpRap1A [4],no binding
same,binding result,HpRap1B [5],binds
RPS0b (dsDNA) DNA 1: ATTTCTTGGTGCGAGGGGGCTCT DNA 2: AGAGCCCCCTCGCACCAAGAAATCCTCTACGTCCTCCTGCTCC,Kd,HpRap1B [6],1.5 ± 0.4 nM
same,binding result,HpRap1A [2],no binding
RPS14 (dsDNA) DNA 1: GTGTTCAGGTGTGAGGTGTGTTT DNA 2: AAACACACCTCACACCTGAACACCCTCTACGTCCTCCTGCTCC,Kd,HpRap1B [1],0.048 ± 0.007 nM
same,binding result,HpRap1A [2],no binding
VIIrAbs (SPR) (dsDNA) DNA 1: GGCAGGCGGTGTAGGGATGCGGC DNA 2: GCCGCATCCCTACACCGCCTGCCCCTCTACGTCCTCCTGCTCC,Kd,HpRap1B [7],64 ± 2 nM
same,Kd,HpRap1A [8],0.28 ± 0.09 nM
RPL5a (dsDNA) DNA 1: CTTGTGTGGTGCAGGGGTGGCAG DNA 2: CTGCCACCCCTGCACCACACAAGCCTCTACGTCCTCCTGCTCC,Kd,HpRap1B [9],2 nM
same,Kd,HpRap1A [10],1.4 ± 0.3 nM
PICKU (competitor) (dsDNA) DNA 1: TGAACTAGGAGCGAGGTGTGTTAC DNA 2: GTAACACACCTCGCTCCTAGTTCA,binding result,HpRap1A [4],no binding
same,binding result,HpRap1B [11],binds
SACCE (competitor) (dsDNA) DNA 1: GTGTGTGGGTGTGTGGGTGTGTG DNA 2: CACACACCCACACACCCACACAC,binding result,HpRap1B [5],binds
RPS0a (dsDNA) DNA 1: AGAGGGCTGTGCACGGATGCTAT DNA 2: ATAGCATCCGTGCACAGCCCTCTCCTCTACGTCCTCCTGCTCC,Kd,HpRap1A [12],10 ± 4 nM
same,binding result,HpRap1B [13],no binding

# Reference: article PMC6510891, “Functional duplication of Rap1 in methylotrophic yeasts”
